The values below come from the RNAGym collection of RNA variant scans (doi:10.1093/molbev/msab373).

First the molecules themselves.
B1: Azoarcus group I ribozyme (parent)
chain: GUGCCUUGCGCCGGGAAACCACGCAAGGGAUGGUGUCAAAUUCGGCGAAACCUAAGCGCCCGCCCGGGCGUAUGGCAACGCCGAGCCAAGCUUCGGCGCCUGCGCCGAUGAAGGUGUAGAGACUAGACGGCACCCACCUAAGGCAAACGCUAUGGUGAAGGCAUAGUCCAGGGAGUGGCGAAAGUCACACAAACCGG

Variants of B1 are the subject of the data set. Put plainly: reverse-splicing fitness (ratio to wild type); higher = more active; in vitro selection; Mg2+ level not given. Put shortly:
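An in vitro group I ribozyme library with randomized positions was T7-transcribed and gel-purified. In triplicate, 10 pmol RNA in EPPS pH 7.5 was reacted with 50 pmoles of a 30-nt RNA substrate for 1 h at 37 °C across several added MgCl2 levels (1–48 mM), then stopped with EDTA. Products were reverse transcribed from a substrate-complementary primer, PCR-amplified and sequenced (HiSeq 4000). Fitness is a variant's read proportion after selection over that before, normalised to wild type.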
In the case of C82G A111G A145U C150U U176C, the reverse-splicing fitness was found to be 0.165. C82G A111U: the reverse-splicing fitness amounted to 0.387. On to C82G A111U A120C A145U C150A C169G U176G, for which the reverse-splicing fitness was determined as 0.00638.

On to C82G A111U A120C A145U C150A C169G U176A, for which the reverse-splicing fitness came out at 0.0207. To C82G A111U A120C A145U C150A C169G U176C belongs 0.0247.

Turning to C82G A111G A145U C150G C169U U176C, the reverse-splicing fitness worked out at 0.016. To C82G A111G A145U C150G C169U U176A belongs 0.00966; to C82G A111G A145U C150G C169U U176G, 0.00577. As for C82G A111U A120C A145C C150G, the figure is 0.0104; as for C82G A111U A120C A145C C150U, 0.0168. To C82G A111U A120C A145C C150A belongs 0.0109; to C82G A111U A120C A145G C150A C169G, 0.00949; to C82G A111U A120C A145G C150A C169A, 0.0113. Turning to C82G A111U A120C A145G C150A C169U, the reverse-splicing fitness amounted to 0.0121. As for C82G A111G A145G C150U C169A U176G, the figure is 0.00698. As for C82G A111G A145G C150U C169A U176C, the figure is 0.0189.

For the variant C82G A111G A145G C150U C169A U176A, the reverse-splicing fitness turned out to be 0.0171. In the case of C82G A111U A120C A145G C169G U176G, the reverse-splicing fitness amounted to 0.00543.

C82G A111U A120C A145G C169G U176C: the reverse-splicing fitness amounted to 0.0281. As for C82G A111U A120C A145G C169G U176A, the figure is 0.0187; as for C82G A111G A145G C150U C169G U176C, 0.0216. As for C82G A111G A145G C150U C169G U176A, the figure is 0.017; as for C82G A111G A145G C150U C169G U176G, 0.00635; as for C82G A111U A120C A145C C150A U176G, 0.0066. To C82G A111U A120C A145C C150A U176C belongs 0.0127; to C82G A111U A120C A145C C150A U176A, 0.0111; to C82G A111U A120C A145G U176C, 0.0311. In the case of C82G A111U A120C A145G U176A, the reverse-splicing fitness is 0.0173. To C82G A111U A120C A145G U176G belongs 0.00743; to C82G A111U A120C A145G C150A C169G U176A, 0.0181; to C82G A111U A120C A145G C150A C169G U176G, 0.00823. As to C82G A111U A120C A145G C150A C169G U176C, the reverse-splicing fitness came out at 0.0297. As for C82G A111G A145G C169U U176C, the figure is 0.0155; as for C82G A111G A145G C169U U176A, 0.0132; as for C82G A111G A145G C169U U176G, 0.0049. As for C82G A111U A120C A145G C169U U176G, the reverse-splicing fitness amounted to 0.00528. As for C82G A111U A120C A145G C169U U176C, the figure is 0.0156. As for C82G A111U A120C A145G C169U U176A, the reverse-splicing fitness was 0.0138. To C82G A111G C150U C169G U176A belongs 0.0165.

On to C82G A111G C150U C169G U176G, for which the reverse-splicing fitness came to 0.00611.

Turning to C82G A111G C150U C169G U176C, the reverse-splicing fitness stood at 0.0201. To C82G A111U A120C A145U C150G C169A U176A belongs 0.0121. C82G A111U A120C A145U C150G C169A U176C: the reverse-splicing fitness worked out at 0.0107. As for C82G A111U A120C A145U C150G C169A U176G, the reverse-splicing fitness stood at 0.00704. For C82G A111U A120C A145G C150U C169G U176C, the reverse-splicing fitness came out at 0.0196. As for C82G A111U A120C A145G C150U C169G U176G, the reverse-splicing fitness came to 0.00632. Turning to C82G A111U A120C A145G C150U C169G U176A, the reverse-splicing fitness amounted to 0.0154. Take C82G A111U A120C A145C U176C: the reverse-splicing fitness turned out to be 0.0234. For C82G A111U A120C A145C U176A, the reverse-splicing fitness was determined as 0.0155. On to C82G A111U A120C A145C U176G, for which the reverse-splicing fitness turned out to be 0.00674. C82G A111U A120C A145U C150A U176A: the reverse-splicing fitness amounted to 0.0101. As for C82G A111U A120C A145U C150A U176G, the reverse-splicing fitness came out at 0.00705.

For the variant C82G A111U A120C A145U C150A U176C, the reverse-splicing fitness was found to be 0.018. To C82G A111G C169A U176G belongs 0.00537. To C82G A111G C169A U176A belongs 0.0162; to C82G A111G C169A U176C, 0.0224; to C82G A111U A120C A145U C150G C169G, 0.00772. As for C82G A111U A120C A145U C150G C169U, the figure is 0.00954; as for C82G A111U A120C A145U C150G C169A, 0.00911; as for C82G A111U A120C A145U C150U C169G U176C, 0.0194. For C82G A111U A120C A145U C150U C169G U176G, the reverse-splicing fitness was 0.00568. On to C82G A111U A120C A145U C150U C169G U176A, for which the reverse-splicing fitness came out at 0.016.

Take C82G A111G A145U C150A C169A U176G: the reverse-splicing fitness turned out to be 0.00645. To C82G A111G A145U C150A C169A U176C belongs 0.0131.

With C82G A111G A145U C150A C169A U176A, the reverse-splicing fitness was determined as 0.0154. Turning to C82G A111U A120C A145G C169U, the reverse-splicing fitness came to 0.0141. Consider C82G A111U A120C A145G C169A, for which the reverse-splicing fitness worked out at 0.0109.

Consider C82G A111U A120C A145G C169G, for which the reverse-splicing fitness stood at 0.00963. As for C82G A111G A145U C150U C169A, the figure is 0.00966. In the case of C82G A111G A145U C150U C169G, the reverse-splicing fitness turned out to be 0.00988.

C82G A111G A145U C150U C169U: the reverse-splicing fitness was determined as 0.0113.

For the variant C82G A111G A145U C150A C169U U176A, the reverse-splicing fitness was determined as 0.0141. To C82G A111G A145U C150A C169U U176C belongs 0.0148; to C82G A111G A145U C150A C169U U176G, 0.00554; to C82G A111U A120C A145C C169A, 0.00886.

As for C82G A111U A120C A145C C169G, the reverse-splicing fitness stood at 0.00986.

As for C82G A111U A120C A145C C169U, the reverse-splicing fitness came out at 0.0119. Regarding C82G A111U A120C A145G C150G C169A U176G, the reverse-splicing fitness stood at 0.0104. With C82G A111U A120C A145G C150G C169A U176A, the reverse-splicing fitness was determined as 0.0145. To C82G A111U A120C A145G C150G C169A U176C belongs 0.0149; to C82G A111U A120C A145U C150A C169U, 0.00991; to C82G A111U A120C A145U C150A C169A, 0.0103.

In the case of C82G A111U A120C A145U C150A C169G, the reverse-splicing fitness turned out to be 0.00901. As for C82G A111U A120C A145U C150G C169U U176A, the figure is 0.0083.
